The results in this text go back to patent publication US20240010748A1 (SHANGHAI QILU PHARMACEUTICAL RESEARCH AND DEVELOPMENT CENTRE, published 2024).

Broadly, the Kd is the free concentration of one partner at which half of the binding sites on the other are occupied at equilibrium, for simple one-to-one binding. A high value points to weaker binding. In general, koff refers to the rate constant with which the complex falls apart. The low end stands for a long-lived complex, the high end for a short-lived complex. The term kon denotes the second-order rate constant of association. Read a low kon as slow association. In general, EC50 refers to the concentration that produces a half-maximal response. A lower EC50 goes with a more potent agent.

Where a chain is given by its changes, count along the chain named. In names and notes the source's numbering stands.

Test [1] addresses T1, human Claudin 18.2 (hCLDN18.2) on stably-transfected HEK293 cells (human, UniProt P56856-2 1-261).
T1 sequence (looked up): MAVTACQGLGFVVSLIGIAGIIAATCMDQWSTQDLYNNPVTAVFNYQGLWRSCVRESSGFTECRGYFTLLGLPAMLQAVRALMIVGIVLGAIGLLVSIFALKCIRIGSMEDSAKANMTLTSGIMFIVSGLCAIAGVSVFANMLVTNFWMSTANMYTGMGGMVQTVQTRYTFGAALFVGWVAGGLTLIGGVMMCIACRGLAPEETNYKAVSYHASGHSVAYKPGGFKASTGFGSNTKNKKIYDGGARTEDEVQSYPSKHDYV
In words: cell-based or functional assay.

The target in the next test is T2, human CD3 E&D protein (human, UniProt P07766 23-126; P04234 22-105).
T2 construct: Soluble CD3 epsilon and delta protein immobilised on the chip; also called Humanized CD3 E&D; humanized CD3 E&D protein
T2 sequence (P07766 23-126, chain 1 of 2): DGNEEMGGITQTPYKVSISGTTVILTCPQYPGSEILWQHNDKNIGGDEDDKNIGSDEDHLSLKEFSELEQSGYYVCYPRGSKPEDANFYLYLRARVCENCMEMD
T2 sequence (P04234 22-105, chain 2 of 2): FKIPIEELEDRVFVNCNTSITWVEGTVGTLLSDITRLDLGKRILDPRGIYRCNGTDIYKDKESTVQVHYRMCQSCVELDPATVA
In words: SPR (Biacore 8K), CD3 E&D immobilised by amino coupling, antibody as analyte, 1:1 fit. On the procedure:
The affinity and kinetic properties of the bispecific antibodies to human CD3 E&D proteins were determined by surface plasmon resonance (SPR) using a Biacore 8K instrument. The human CD3 E&D protein was immobilized on the experimental channel of CMS chip by amino coupling, then the antibody to be tested was subjected to doubling dilution to serial concentrations, flowed through the surfaces of an experimental channel and a reference channel successively for binding, followed by dissociation, the binding and dissociation curve of each sample was obtained, and the results were analyzed and evaluated by Biacore Insight Evaluation software.
The bispecific antibodies of the present disclosure were diluted to 400 nM with 1×HBS-EP+ (10 mM HEPES, pH 7.4, 150 mM NaCl, 3 mM EDTA, 0.05% P20) running buffer, then subjected to doubling dilution to 1.56 nM with this buffer, thus obtaining antibody solutions in a range of concentrations from 400 nM to 1.56 nM. At the end of each experiment, the chip was regenerated by washing with 3M MgCl₂ solution at a flow rate of 30 μL/min for 30 s to remove captured antibody together with antigen. The raw data were analyzed using Biacore Insight Evaluation Software (version 2.0.15.12933) with a 1:1 fit model and affinity and kinetic experimental data of the resulting bispecific antibodies were shown in Table 4.

The target of test [2] is T3, Cynomolgus macaques Claudin 18 (cynoCLDN18) on stably-transfected HEK293 cells (Cynomolgus macaques, UniProt A0A2K5VVB4 1-261).
T3 chain: T1 sequence (looked up) with I240T, R246H, V251L
Kind of test: FACS on HEK293-cynoCLDN18 cells.

Test [3] has as its target T4, human CD3 (hCD3) naturally expressed on Jurkat cells (human, UniProt P07766 23-207).
T4 construct: whole, on cells; CD3 on cells is a complex of several chains; also called CD3 receptors on Jurkat-NFAT cells
Kind of test: FACS on Jurkat cells. On the procedure:
(§1) The binding situation of the anti-CD3-CLDN18.2 bispecific antibodies to stably-transfected HEK293 cells expressing hCLDN18.2 (HEK293-hCLDN18.2) and T lymphocytes naturally expressing hCD3 (Jurkat) were detected by using FACS.
(§2) HEK293-hCLDN18.2 or Jurkat cells were collected and re-suspended with FACS buffer (PBS+1% BSA+0.5 mM EDTA), after adjusting the cell concentration, 1E5 cells per well were added into a 96-well plate, and then the antibody after gradient dilution was added according to the preset concentration, wherein the negative control was human IgG1AA (Negative-IgG1AA), the positive control of CLDN18.2 was antibody 6#AA, and the positive control of CD3 was antibody h160C9AA. Following incubation in a 4° C. shaking table for 2 h, the mixture was centrifugally washed twice with FACS buffer, added with fluorescently labeled anti-human IgG secondary antibody, 100 μL per well; after incubation in a 4° C. shaking table for 1 h, the mixture was centrifugally washed twice with FACS buffer, the cells were filtered to a 96-well plate, and then the prepared sample was detected on a flow cytometer; the mean fluorescence intensity (hereinafter referred to as MFI) for each concentration was calculated by software, and then the median effective concentration (hereinafter referred to as EC₅₀) and the top mean fluorescence intensity (Top MFI) were calculated by GraphPad software, and the results were shown in Table 3.

Test [4] deals with T4, human CD3 (hCD3) naturally expressed on …. In words: cell-based or functional assay.
For test [5], the target named is T1, human Claudin 18.2 (hCLDN18.2) on …. Kind of test: FACS on HEK293-hCLDN18.2 cells. On the procedure:
as §1, §2

Test [6] shares this target. Kind of test: cell-based or functional assay. This is another data set of the same source.
Test [7] has as its target T4, human CD3 (hCD3) naturally expressed on …. In words: FACS on Jurkat cells (natural hCD3), fluorescent anti-human IgG secondary antibody. The method, then: as §1
HEK293-hCLDN18.2 or Jurkat cells were collected and re-suspended with FACS buffer (PBS+1% BSA+0.5 mM EDTA), after adjusting the cell concentration, 1E5 cells per well were added into a 96-well plate, and then the antibody after gradient dilution was added according to the preset concentration, wherein the negative control was human IgG1AA (Negative-IgG1AA), the positive control of CLDN18.2 was antibody 6#AA, and the positive control of CD3 was antibody h160C9AA. […]

T4 sequence (P07766 23-207): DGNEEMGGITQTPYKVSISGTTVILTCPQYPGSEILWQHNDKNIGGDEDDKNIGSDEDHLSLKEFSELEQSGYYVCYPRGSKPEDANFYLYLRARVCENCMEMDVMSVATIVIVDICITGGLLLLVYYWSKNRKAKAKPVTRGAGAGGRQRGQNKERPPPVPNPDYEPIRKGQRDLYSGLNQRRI

B1: 31905-44AA (bispecific antibody, human IgG1, kappa, L234A L235A)
heavy 1: not shown
heavy 2: QVQLVQSGAEVKKPGASVKVSCKASGYIFTNYWIHWVRQAPGQGLEWMGRIYPGTGNTYYNEKFTGRVTMTRDTSTSTVYMELSSLRSEDTAVYYCAREGYGKGNSMDYWGQGTTVTVSSASTKGPSVFPLAPSSKSTSGGTAALGCLVKDYFPEPVTVSWNSGALTSGVHTFPAVLQSSGLYSLSSVVTVPSSSLGTQTYICNVNHKPSNTKVDKKVEPKSCDKTHTCPPCPAPEAAGGPSVFLFPPKPKDTLMISRTPEVTCVVVDVSHEDPEVKFNWYVDGVEVHNAKTKPREEQYNSTYRVVSVLTVLHQDWLNGKEYKCKVSNKALPAPIEKTISKAKGQPREPQVCTLPPSRDELTKNQVSLSCAVKGFYPSDIAVEWESNGQPENNYKTTPPVLDSDGSFFLVSKLTVDKSRWQQGNVFSCSVMHEALHNRYTQKSLSLSPGK
light: not shown
notes: Full-length 6#AA with one anti-CD3 scFv of h160C9AA on the C-terminus of one heavy chain; knob-into-hole; Fc with L234A/L235A; also called anti-CD3-CLDN18.2 bispecific antibody; CD3 monovalent antibody
Consider B1, for which, in test [1], the “ADCC activity, EC50” value worked out at 0.532 nM and the “ADCC activity, Maximum lysis (%)” value amounted to 7.03%. In the test with human CD3 E&D protein, binding was put at a Kd of 17.9 nM, the koff amounted to 0.00365 s⁻¹ and the kon was 204000 M⁻¹ s⁻¹. In test [2], a half-maximal response (EC50) required 0.84 nM and the “MFI (Max)” value was 41800 MFI. In addition, in test [3], the EC50 amounted to 9.3 nM and the “Top mean fluorescence intensity (Top MFI)” value was 1700 MFI. Also, in test [4], the “Jurkat-NFAT luciferase reporter, EC50” value stood at 124 nM and the “Jurkat-NFAT luciferase reporter, Fluorescence value (Max)” value (shortened to “Jurkat-NFAT luciferase reporter … (Max)”) was 114000. For the same molecule, in test [5], the EC50 stood at 1.18 nM and the “Top mean fluorescence intensity (Top MFI)” value stood at 31000 MFI. Besides, in test [6], the “T cell activation, CD25+CD69+ %” value was determined as 33.4%; the “T cell activation, EC50” value was found to be 0.049 nM; the “TDCC activity, EC50” value is 0.54 nM; the “TDCC activity, Maximum lysis (%)” value came out at 30%.

B2: h160C9AA (antibody, human IgG1, lambda, L234A L235A, V domains shown)
VH: EVKLVESGGGLVQPGGSLKLSCAASGFTFNTYAMNWVRQAPGKGLEWVARIRSKYNNYATYYADSVKDRFTISRDDAKNTLYLQMNNLRTEDTAVYYCVRHGNFGNSYVSWFAYWGQGTLVTVSS
VL: QAVVTQEPSLTVSPGGTVTLTCRSSTGAVTTSNYANWVQQKPGQAPRGLIGGTNKRAPGTPARFSGSLLGGKAALTLSGAQPEDEAEYYCALWYSNLWVFGGGTKLTVLG
notes: Anti-CD3 full-length antibody, Fc with L234A/L235A
As to B2, the “MFI (Max)” value in test [2] was determined as 1040 MFI. In test [3], a half-maximal effect (EC50) was put at 0.13 nM and the “Top mean fluorescence intensity (Top MFI)” value was 2020 MFI. Also, in test [4], the “Jurkat-NFAT luciferase reporter, EC50” value came to 0.32 nM and the “Jurkat-NFAT luciferase reporter … (Max)” value came to 220000. Also, the “Top mean fluorescence intensity (Top MFI)” value in test [5] is 897 MFI.

B3: 6#AA (antibody, human IgG1, kappa, L234A L235A, V domains shown)
VH: QVQLVQSGAEVKKPGASVKVSCKASGYIFTNYWIHWVRQAPGQGLEWMGRIYPGTGNTYYNEKFTGRVTMTRDTSTSTVYMELSSLRSEDTAVYYCAREGYGKGNSMDYWGQGTTVTVSS
VL: DIVMTQSPDSLAVSLGERVTMNCKSSQSLLNAGNQKNYLTWYQQKPGQPPKLLFYWASTRESGVPDRFSGSGSGTDFTLTISSVQAEDVAVYHCQNAYYYPYTFGGGTKLEIKR
notes: Anti-human CLDN18.2 full-length antibody, IgG1 Fc with L234A/L235A
In the case of B3, in test [1], the “ADCC activity, EC50” value was 0.771 nM and the “ADCC activity, Maximum lysis (%)” value came to 6.92%. In test [2], the midpoint of the response, the EC50, lay at 0.62 nM and the “MFI (Max)” value is 39500 MFI. Also, the “Top mean fluorescence intensity (Top MFI)” value in test [3] worked out at 26 MFI. Further, the binding result in test [7] was “no binding (tested: about 2e-7 M (log M about -6.7))”. Moreover, the “Jurkat-NFAT luciferase reporter … (Max)” value in test [4] was determined as 0. In test [5], the EC50 is 0.95 nM and the “Top mean fluorescence intensity (Top MFI)” value stood at 18600 MFI. For the same molecule, in test [6], the “T cell activation, CD25+CD69+ %” value was 3.18%; the “TDCC activity, EC50” value worked out at 1.45 nM; the “TDCC activity, Maximum lysis (%)” value worked out at 16.3%.
